In the Human Domainome abundance scans (Beltran et al. 2025) one finds abundance fitness data, which are given here for 38 substances.

± gives the uncertainty stated by the source.

A short description of the data set: abundance fitness (aPCA) (normalised: wild type 0, dead -1); higher = more abundant; growth selection in yeast, the domain comes from the species named. Particulars: Homo sapiens.
Take “Scaffold attachment factor B1 K63C, Q15424”: the abundance fitness was -0.234 ± 0.048.
Next, “Scaffold attachment factor B1 K63D, Q15424”: -0.255 ± 0.094; “Scaffold attachment factor B1 K63F, Q15424”: -0.432 ± 0.061.
Take “Scaffold attachment factor B1 K63H, Q15424”: the abundance fitness was -0.541 ± 0.1.
The value for “Scaffold attachment factor B1 K63I, Q15424” was -0.394 ± 0.09; that for “Scaffold attachment factor B1 K63L, Q15424” was -0.237 ± 0.044.
Next, “Scaffold attachment factor B1 K63M, Q15424”: -0.43 ± 0.07.
Next, “Scaffold attachment factor B1 K63P, Q15424”: -0.61 ± 0.054; “Scaffold attachment factor B1 K63Q, Q15424”: -0.085 ± 0.079.
“Scaffold attachment factor B1 K63R, Q15424”: the abundance fitness was -0.144 ± 0.055.
The value for “Scaffold attachment factor B1 K63T, Q15424” was -0.238 ± 0.081.
The value for “Scaffold attachment factor B1 K63V, Q15424” was -0.185 ± 0.056; that for “Scaffold attachment factor B1 K63W, Q15424” was -0.398 ± 0.057.
Next, “Scaffold attachment factor B1 K63Y, Q15424”: -0.42 ± 0.067; “Scaffold attachment factor B1 L31A, Q15424”: -0.333 ± 0.069; “Scaffold attachment factor B1 L31C, Q15424”: -0.553 ± 0.069.
On to “Scaffold attachment factor B1 L31D, Q15424”, for which the abundance fitness was -0.498 ± 0.075.
The value for “Scaffold attachment factor B1 L31E, Q15424” was -0.496 ± 0.076; that for “Scaffold attachment factor B1 L31F, Q15424” was -0.417 ± 0.098; that for “Scaffold attachment factor B1 L31G, Q15424” was -0.536 ± 0.06.
The value for “Scaffold attachment factor B1 L31H, Q15424” was -0.575 ± 0.072; that for “Scaffold attachment factor B1 L31I, Q15424” was -0.17 ± 0.06.
Next, “Scaffold attachment factor B1 L31K, Q15424”: -0.66 ± 0.093.
As for “Scaffold attachment factor B1 L31M, Q15424”, the abundance fitness was -0.338 ± 0.087.
The value for “Scaffold attachment factor B1 L31P, Q15424” was -0.748 ± 0.071; that for “Scaffold attachment factor B1 L31Q, Q15424” was -0.623 ± 0.08.
Next, “Scaffold attachment factor B1 L31R, Q15424”: -0.509 ± 0.051; “Scaffold attachment factor B1 L31S, Q15424”: -0.547 ± 0.068.
The value for “Scaffold attachment factor B1 L31T, Q15424” was -0.53 ± 0.1; that for “Scaffold attachment factor B1 L31V, Q15424” was -0.188 ± 0.06; that for “Scaffold attachment factor B1 L31W, Q15424” was -0.628 ± 0.052.
As for “Scaffold attachment factor B1 L31Y, Q15424”, the abundance fitness was -0.471 ± 0.07.
For the substance “Scaffold attachment factor B1 L34A, Q15424”, the abundance fitness is -0.482 ± 0.064.
The value for “Scaffold attachment factor B1 L34C, Q15424” was -0.321 ± 0.079; that for “Scaffold attachment factor B1 L34D, Q15424” was -0.632 ± 0.081.
The value for “Scaffold attachment factor B1 L34E, Q15424” was -0.719 ± 0.084.
Consider “Scaffold attachment factor B1 L34F, Q15424”, for which the abundance fitness is -0.212 ± 0.06.
On to “Scaffold attachment factor B1 L34G, Q15424”, for which the abundance fitness was -0.576 ± 0.056.
